# According to IntAct's records for PubMed 21390248:
# Experiments:
# 1433g_mouse Ywhag [1] = biological target: 1433g_mouse Ywhag (UniProt P61982)
# 1433g_mouse Ywhag [2] = biological target: 1433g_mouse Ywhag (UniProt P61982); remark: listed apart in the source
# Sequence of UniProt P61982 (P61982 whole entry): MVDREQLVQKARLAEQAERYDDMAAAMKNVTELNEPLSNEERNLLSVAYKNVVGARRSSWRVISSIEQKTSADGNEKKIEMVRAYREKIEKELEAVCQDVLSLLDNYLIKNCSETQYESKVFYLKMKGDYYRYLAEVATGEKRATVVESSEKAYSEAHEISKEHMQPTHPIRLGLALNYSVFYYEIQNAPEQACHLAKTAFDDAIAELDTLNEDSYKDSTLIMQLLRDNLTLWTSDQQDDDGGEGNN
substance,measurement,setting,value
"Leucine-rich repeat serine/threonine-protein kinase 2 (Mus musculus), Q5S006 S935A",effect of a mutation on the interaction,1433g_mouse Ywhag [1],decreasing interaction
"Leucine-rich repeat serine/threonine-protein kinase 2 (Mus musculus), Q5S006 G2019S",effect of a mutation on the interaction,1433g_mouse Ywhag [1],decreasing interaction
"Leucine-rich repeat serine/threonine-protein kinase 2 (Mus musculus), Q5S006 Y1699C",effect of a mutation on the interaction,1433g_mouse Ywhag [2],decreasing interaction
"Leucine-rich repeat serine/threonine-protein kinase 2 (Mus musculus), Q5S006 R1441G",effect of a mutation on the interaction,1433g_mouse Ywhag [1],decreasing interaction
